Assay [1] has as its system C-PAE cells. In words: Cell attachment assay. The class given is cell-based, bovine. Here is the method: The attachment of HUVECs to Tumstatin-coated plates in the presence of integrin subunits α1 through α6, β1, and αvβ3 integrin blocking antibody was examined. This assay was performed according to the method of Senger et al. (Senger, D. R. et al, 1997, Proc. Natl. Acad. Sci. USA 94:13612-7), with minor modification. 96-well plates were coated with either human Tumstatin, mouse laminin-1, or human Type IV collagen (Collaborative Biomedical Prods., Bedford, Mass., USA) at a concentration of 10 μg/ml overnight at 37° C. Vitronectin (Collaborative Biomed. Prods.) at a concentration of 0.5 μg/ml was then used to coat the plates. The remaining protein binding sites were blocked with 100 mg/ml of BSA (Sigma Chemical Co., St. Louis, Mo., USA) in PBS for 2 hours. HUVEC cells were grown to subconfluence (70-80%) in EGM-2 medium, gently trypsinized and resuspended in serum-free medium (1.5×10^5 cells/ml). The cells were mixed with 10 μg/ml of either mouse IgG, (control) (Life Technologies/Gibco BRL, Gaithersberg, Md., USA) or antibody (mouse monoclonal antibody to the human β1 integrin (clone P4C10) (Life Technologies/Gibco BRL); monoclonal antibody to human integrins α1 through α.6 (CHEMICON Int'l, Temecula, Calif., USA); αvβ3 integrin (clone LM609) (CHEMICON Int'l) and incubated for 15 minutes at room temperature, with gentle agitation. One hundred microliters of the cell suspension was then added to each well and incubated for 45 minutes at 37° C. Unattached cells were removed by washing, and the number of attached cells were counted after staining with methylene blue. C-PAE cells were used in separate experiments, following the above procedure.
To determine the attachment of C-PAE cells to plates coated with the Tumstatin deletion mutants, the cell attachment assay was performed as described above (see, e.g., Example 28). Rabbit antibody raised against Tum-4 was prepared as previously described (Kalluri et al., 1997, J. Clin. Invest. 99:2470-8). Goat anti-rabbit IgG antibody conjugated with horseradish peroxidase was purchased from Sigma Chemical Company (St. Louis, Mo., USA). […] Plates coated with Tum-1 (FIG. 36A) were also treated with anti-Tum-4 antibody (1:200 dilution) to block the previously reported (Shahan et al, 1999, Cancer Res. 59:4584-90) αvβ3 binding site, as well as the αvβ5 binding site.
Cell Attachment Activity: Cell attachment using endothelial cells was performed as described above. HUVEC or C-PAE cells were incubated with monoclonal anti-human integrin antibodies, control mouse IgG (10 μg/ml), or synthetic peptide, plated onto pre-coated 96-well plates, and the number of cells attaching to the plates was determined using measurement of methylene blue staining at OD655. […] CNGRC peptide was used as a control.
The cell attachment assay was performed as described above.
Tumstatin produced in 293 human embryonic kidney cells was used to coat tissue culture plates. […] PBS and BSA served as positive and negative controls, respectively.

Assay [2] has as its system C-PAE cells. In words: Annexin V-FITC apoptosis assay. The class given is cell-based, bovine. The following applies: for Apo (Annexin V-FITC assay): Table 4. How it is done:
Fifty thousand C-PAE cells were added to each well of a 6-well tissue culture plate in DMEM supplemented with 10% FBS for 12 hours. Fresh medium together and either 5 μg/ml Arresten or 40 ng/ml TNFα (positive control) was added at 2, 4 and 6 hour time points. Control wells received an equal of volume of PBS. Detached cells and adherent cells were pooled together and centrifuged at 1500 rpm. Cells were washed with binding buffer (Clontech, Palo Alto, Calif., USA), and phosphatidyl-serine (PS) externalization, an indicator of apoptosis, was measured by labeling with FITC-labeled annexin V (Clontech) according to manufacturer's instructions. Annexin-FITC labeled cells were counted using a FACStar Plus flow cytometer (Becton-Dickinson, Waltham, Mass., USA). For each treatment, 10,000 cells were counted and stored. […] Relative to controls, the percentage of annexin-V-stained (apoptotic) cells increased to about 27% at 2 hours, and near 20% at 4 and 6 hours for the positive control, TNFα. For Arresten-treated cells, the percentage of apoptotic cells was about 18% at 2 hours, and about 23% at 4 and 6 hours.
Annexin V-FITC Labeling. In order to establish apoptosis as the potential mode of action for Canstatin, Annexin V-FITC was used to label externalized phosphatidylserine (PS), to assess apoptotic cells. 0.5×10^6 C-PAE cells, PC-3, 786-O and HEK 293 cells were added to each well of a 6 well tissue culture plate in 10% FBS supplemented DMEM (BioWhittaker, Walkersville, Md., USA) overnight. The next day, fresh medium was added to all wells together with 40 ng/ml TNF-α (positive control) or 15 μg/ml Canstatin. Control cells received an equal volume of PBS. After 24 hours of treatment, medium containing detached cells was collected and attached cells were trypsinized and combined with detached cells and centrifuged at 3,000×g. Cells were then washed and phosphatidyl-serine externalization (an early apoptotic indicator) was measured by labeling with FITC-labeled annexin V (Clontech, Palo Alto, Calif., USA) according to the manufacturer's instructions. Annexin V-FITC-labeled cells were counted using a FAC Star Plus flow cytometer (Becton-Dickenson, Waltham, Mass., USA). For each treatment 15,000 cells were counted and stored in listmode.
C-PAE cells (0.5×10^6 per well) were seeded onto a 6-well plate in 10% FCS supplemented DMEM. The next day, fresh medium containing 10% FCS was added with either 80 ng/ml of TNF-α (positive control) or Tumstatin ranging from 0.02 to 20 μg/ml. Control cells received an equal volume of PBS. After 18 hours of treatment, medium containing floating cells was collected, and attached cells were trypsinized and centrifuged together with floating cells at 3,000×g. The cells were then washed in PBS and resuspended in binding buffer (10 mM HEPES/NaOH, pH 7.4, 140 mM NaCl, 2.5 mM CaCl2). Annexin V-FITC (Clontech, Palo Alto, Calif., USA) was added to a final concentration of 150 ng/ml, and the cells were incubated in the darkness for 10 minutes. The cells were washed again in PBS and resuspended in binding buffer. Annexin V-FITC labeled cells were counted using a FACStar Plus flow cytometer (Becton-Dickinson, Waltham, Mass., USA). For each treatment, 15,000 cells were counted and stored in listmode.
Apoptosis was measured by Annexin V-FITC assay, using the ApoAlert kit (Clontech, Palo Alto, Calif., USA). Propidium iodide was used to stain the nuclei of cells that had died by ways other than apoptosis.
The assay was performed as described above, by treating C-PAE cells with Tumstatin-44-131 for 18 hours. Control cells received PBS.

In assay [3] the test system is WM-164 cells. In words: Attachment of melanoma cells to coated plates. It is filed as cell-based, human. The text has this: Tumstatin and all three of the deletion mutants […] attachment of WM-164 melanoma cells to the plates.

For the molecule LQRFTTMPFLFCNVNDVCNF [T3], in assay [1], the “attachment to T3-coated plates with anti-αv or anti-β1 integrin antibody” value is on record as “did not inhibit”, the “attachment to T3 peptide-coated plates with anti-β3 integrin antibody” value is “inhibited by a preincubation with anti-β3 integrin antibody” and the “inhibition of cell attachment to Tum-4-coated plates by peptide” value is recorded as “failed to inhibit”. Moreover, the “inhibition of cell attachment onto Tum-5-coated plates by peptide” value in assay [1] (2.5 μg/ml peptide) is recorded as “significantly inhibited”. In assay [1] (10 μg/ml peptide, 293-produced Tumstatin coating), the “inhibition of cell attachment to Tumstatin-coated plates by peptide” value is 46.4%. In addition, the “binding to vitronectin-coated plates (2.5 μg/ml) in the presence of peptide” value in assay [1] (0.1, 1.0, 10.0 μg/ml peptide) is reported as “not inhibited”.

B1: Tumstatin: NC1 domain of the α3 chain of type IV collagen, residues 1-244 (SEQ ID NO:10) (protein, listed as Homo sapiens)
chain: GLKGKRGDSGSPATWTTRGFVFTRHSQTTAIPSCPEGTVPLYSGFSFLFVQGNQRAHGQDLGTLGSCLQRFTTMPFLFCNVNDVCNFASRNDYSYWLSTPALMPMNMAPITGRALEPYISRCTVCEGPAIAIAVHSQTTDIPPCPHGWISLWKGFSFIMFTSAGSEGTGQALASPGSCLEEFRASPFLECHGRGTCNYYSNSYSFWLASLNPERMFRKPIPSTVKAGELEKIISRCQVCMKKRH
B1: the annexin fluorescence result in assay [2] (2 μg/ml, 18 hours) is “mild shift”; in assay [2] (20 μg/ml, 18 hours), “distinct shift of annexin fluorescence peak”; in assay [2] (concentrations below 0.2 μg/ml), “did not demonstrate any annexin V positivity”. The “Apo (Annexin V-FITC assay)” value in assay [2] was 10 µg. In addition, in assay [3], the “binding of WM-164 cells to coated plates” value is “bind to WM-164 cells”.

B2: Tum-4: residues 181 to 244 of Tumstatin (SEQ ID NO:25) (protein)
chain: EFRASPFLECHGRGTCNYYSNSYSFWLASLNPERMFRKPIPSTVKAGELEKIISRCQVCMKKRH
modifications: Tum-4 (amino acids 181-244 of SEQ ID NO10)
Take B2: in assay [1] (label = plate coating), the “inhibition of attachment of C-PAE cells to coated plates by αvβ3 antibody” value is recorded as 62.6% and the “inhibition of binding of C-PAE cells to coated plates by αvβ5 antibody” value is reported as “not inhibited”. In addition, the “binding of WM-164 cells to coated plates” value in assay [3] is “bind to WM-164 cells”.

B3: Canstatin: NC1 domain of the α2 chain of Type IV collagen (SEQ ID NO:6) (protein, listed as Homo sapiens)
chain: VSIGYLLVKHSQTDQEPMCPVGMNKLWSGYSLLYFEGQEKAHNQDLGLAGSCLARFSTMPFLYCNPGDVCYYASRNDKSYWLSTTAPLPMMPVAEDEIKPYISRCSVCEAPAIAIAVHSQDVSIPHCPAGWRSLWIGYSFLMHTAAGDEGGGQSLVSPGSCLEDFRATPFIECNGGRGTCHYYANKYSFWLTTIPEQSFQGSPSADTLKAGLIRTHISRCQVCMKNL
In the case of B3, the induction of apoptosis result was “specifically induce apoptosis of endothelial cells” in assay [2] (15 μg/ml Canstatin, 24 hours) and “induced apoptosis” in assay [2] (concentrations above 1 μg/ml).

B4: Can-1: N-terminal 114 amino acids of full-length Canstatin (protein, listed as Homo sapiens)
chain: VSIGYLLVKHSQTDQEPMCPVGMNKLWSGYSLLYFEGQEKAHNQDLGLAGSCLARFSTMPFLYCNPGDVCYYASRNDKSYWLSTTAPLPMMPVAEDEIKPYISRCSVCEAPAIA
As to B4, the induction of apoptosis result in assay [2] (concentrations above 1 μg/ml) is listed as “induced apoptosis”; in assay [2] (concentrations of less than 1 μg/ml), “most potent in inducing apoptosis”.

B5: Tumstatin-44-131: residues 44 to 131 of full-length Tumstatin (SEQ ID NO:33) (protein)
chain: FSFLFVQGNQRAHGQDLGTLGSCLQRFTTMPFLFCNVNDVCNFASRNDYSYWLSTPALMPMNMAPITGRALEPYISRCTVCEGPAIAI
modifications: Tumstatin-45-132 (amino acids 45-132 of SEQ ID NO10)
Regarding B5, in assay [1] (label = plate coating), the “attachment to coated plates in the presence of RGD peptide (CDCRGDCFC)” value was “not inhibited”. For the same molecule, the annexin fluorescence entry in assay [2] (5 μg/ml Tumstatin-44-131, 18 hours) is “distinct shift of the fluorescence intensity peak”. For the same molecule, in assay [2], the “Apo (Annexin V-FITC assay)” value was “active”.

B6: Tum-2: residues 1 to 132 of Tumstatin (SEQ ID NO:23) (protein)
chain: GLKGKRGDSGSPATWTTRGFVFTRHSQTTAIPSCPEGTVPLYSGFSFLFVQGNQRAHGQDLGTLGSCLQRFTTMPFLFCNVNDVCNFASRNDYSYWLSTPALMPMNMAPITGRALEPYISRCTVCEGPAIAI
modifications: Tum-2 (amino acids 1-132 of SEQ ID NO10)
In the case of B6, in assay [1] (label = plate coating), the “inhibition of attachment of C-PAE cells to coated plates by αvβ3 antibody” value is 69.8% and the “inhibition of binding of C-PAE cells to coated plates by αvβ5 antibody” value was “not inhibited”. In addition, the “binding of WM-164 cells to coated plates” value in assay [3] is reported as “bind to WM-164 cells”.

B7: endostatin: tumor associated angiogenesis inhibitor used as comparator (protein, UniProt P39060 1572-1754, looked up)
Endostatin: HSHRDFQPVLHLVALNSPLSGGMRGIRGADFQCFQQARAVGLAGTFRAFLSSRLQDLYSIVRRADRAAVPIVNLKDELLFPSWEALFSGSEGPLKPGARIFSFDGKDVLRHPTWPQKSVWHGSDPNGRRLTESYCETWRTEAPSATGQASSLLGGRLLGQSAASCHHAYIVLCIENSFMTASK
modifications: Endostatin
For B7, the “IC50, induction of endothelial cell apoptosis” value in assay [2] (10% FBS) is “no activity”.

The record behind these values is patent US7387779B2, “Anti-angiogenic proteins and fragments and methods of use thereof” (Beth Israel Deaconess Medical Center, priority 1998, dated 2008).
